According to US9683053B2 (Glenmark Pharmaceuticals S.A., dated 2017):

Experiments:
Assay in all cases: co-expression, protein-A, scanning densitometry of non-reduced SDS-PAGE
VL-BT beta chain = VL-BT beta chain (Artificial Sequence)
[1] = molecular target: VH(anti-hCD19)-CH1 delta-BT beta c-myc_VL(anti-hCD19)-CK gamma molecule (half-molecule) (Artificial Sequence)
[2] = molecular target: VH(anti-hCD19)-CH13-BT beta c-myc_VL(anti-hCD19)-CK3 molecule (half-molecule) (Artificial Sequence)
VL-BT beta F405A chain = VL-BT beta F405A chain (Artificial Sequence)
Sequence of VL-BT beta F405A chain (Artificial Sequence) (chain, as listed by the source F405A F405A): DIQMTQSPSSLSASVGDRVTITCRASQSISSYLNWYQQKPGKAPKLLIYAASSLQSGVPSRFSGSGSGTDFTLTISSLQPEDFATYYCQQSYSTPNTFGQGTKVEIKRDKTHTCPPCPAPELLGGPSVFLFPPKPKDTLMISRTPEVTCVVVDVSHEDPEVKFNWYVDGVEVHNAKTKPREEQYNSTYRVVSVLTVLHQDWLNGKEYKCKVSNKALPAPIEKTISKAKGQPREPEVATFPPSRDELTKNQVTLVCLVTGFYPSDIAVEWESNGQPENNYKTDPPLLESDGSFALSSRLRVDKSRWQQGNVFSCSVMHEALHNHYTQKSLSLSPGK

Sequence of VL-BT beta chain (Artificial Sequence) (chain, as listed by the source): as the sequence (chain, as listed by the source F405A F405A) above, with A293C counted along it
Sequence of VH(anti-hCD19)-CH1 delta-BT beta c-myc_VL(anti-hCD19)-CK gamma molecule (half-molecule) (Artificial Sequence) (heavy, as listed by the source, chain 1 of 2): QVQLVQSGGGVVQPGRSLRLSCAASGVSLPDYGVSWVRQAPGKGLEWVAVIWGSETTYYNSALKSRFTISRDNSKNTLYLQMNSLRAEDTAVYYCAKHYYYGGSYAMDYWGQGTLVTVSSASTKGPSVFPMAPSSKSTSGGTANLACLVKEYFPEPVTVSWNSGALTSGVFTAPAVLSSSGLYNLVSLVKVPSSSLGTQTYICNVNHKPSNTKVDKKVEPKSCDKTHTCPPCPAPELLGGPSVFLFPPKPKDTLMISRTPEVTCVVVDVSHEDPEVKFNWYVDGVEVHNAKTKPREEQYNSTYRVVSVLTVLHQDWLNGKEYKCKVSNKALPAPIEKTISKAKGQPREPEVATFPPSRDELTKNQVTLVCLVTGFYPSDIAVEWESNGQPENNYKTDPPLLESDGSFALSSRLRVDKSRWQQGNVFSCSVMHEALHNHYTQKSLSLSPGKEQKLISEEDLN
Sequence of VH(anti-hCD19)-CH1 delta-BT beta c-myc_VL(anti-hCD19)-CK gamma molecule (half-molecule) (Artificial Sequence) (light, as listed by the source, chain 2 of 2): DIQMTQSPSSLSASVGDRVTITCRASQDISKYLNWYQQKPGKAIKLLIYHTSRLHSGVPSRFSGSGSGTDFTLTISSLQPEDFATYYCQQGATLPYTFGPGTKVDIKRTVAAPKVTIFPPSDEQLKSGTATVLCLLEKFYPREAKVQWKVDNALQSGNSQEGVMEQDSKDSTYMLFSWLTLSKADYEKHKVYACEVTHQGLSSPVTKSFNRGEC
Sequence of VH(anti-hCD19)-CH13-BT beta c-myc_VL(anti-hCD19)-CK3 molecule (half-molecule) (Artificial Sequence) (heavy, as listed by the source, chain 1 of 2): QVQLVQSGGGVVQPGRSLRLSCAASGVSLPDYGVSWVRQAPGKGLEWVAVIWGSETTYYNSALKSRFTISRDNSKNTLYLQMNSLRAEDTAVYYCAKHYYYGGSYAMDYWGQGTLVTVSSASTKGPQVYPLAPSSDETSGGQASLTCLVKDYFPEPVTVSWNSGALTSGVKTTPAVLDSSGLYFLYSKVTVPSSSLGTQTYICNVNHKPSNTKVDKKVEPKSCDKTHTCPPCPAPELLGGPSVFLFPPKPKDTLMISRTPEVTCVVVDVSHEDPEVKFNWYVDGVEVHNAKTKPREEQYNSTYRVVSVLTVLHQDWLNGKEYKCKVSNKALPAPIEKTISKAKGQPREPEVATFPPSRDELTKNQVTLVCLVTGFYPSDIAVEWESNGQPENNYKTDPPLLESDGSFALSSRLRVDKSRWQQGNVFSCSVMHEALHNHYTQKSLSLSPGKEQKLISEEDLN
Sequence of VH(anti-hCD19)-CH13-BT beta c-myc_VL(anti-hCD19)-CK3 molecule (half-molecule) (Artificial Sequence) (light, as listed by the source, chain 2 of 2): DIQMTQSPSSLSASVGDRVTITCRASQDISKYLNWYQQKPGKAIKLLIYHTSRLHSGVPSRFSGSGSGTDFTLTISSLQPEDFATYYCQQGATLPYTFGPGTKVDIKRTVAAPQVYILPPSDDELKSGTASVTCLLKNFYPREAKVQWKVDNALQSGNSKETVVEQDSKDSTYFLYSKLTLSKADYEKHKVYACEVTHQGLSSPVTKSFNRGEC

hetero-dimer percentage of the protein-A purified material (VL-BT beta chain): ≥ 76.1%
hetero-dimer percentage of the protein-A purified material [1]: ≥ 50%
hetero-dimer percentage of the protein-A purified material [2]: ≥ 51.9%
hetero-dimer percentage of the protein-A purified material (VL-BT beta F405A chain): ≥ 80.7%
B1: BT alpha His chain (other)
chain: DKTHTCPPCPAPELLGGPSVFLFPPKPKDTLMISRTPEVTCVVVDVSHEDPEVKFNWYVDGVEVHNAKTKPREEQYNSTYRVVSVLTVLHQDWLNGKEYKCKVSNKALPAPIEKTISKAKGQPREPQVYTLPPSRDELTKNQVKLVCLVTGFYPSDIAVEWESNGQPENNYYTTPPVLDSDGSFSLVSWLNVDKSRWQQGNVFSCSVMHEALHNHYTQKSLSLSPGKHHHHHH
